Experimental findings from paper PMC10499821 (2023) are described below.

Where no end group is shown, it is not given here. The star is where a group is joined. FITC = O=C1OC2(c3ccc(O)cc3Oc3cc(O)ccc32)c2ccc(NC(=S)*)cc21

B1: Nsp9 (natural protein)
chain: NNELSPVALRQMSCAAGTTQTACTDDNALAYYNTTKGGRFVLALLSDLQDLKWARFPKSDGTGTIYTELEPPCRFVTDTPKGPKVKYLYFIKGLNNLNRGMVLGSLAATVRLQ

For one test, the target named is Nsp3 SUD-M (SARS-CoV-2, UniProt P0DTD1 819-2763). The test can be described thus: FP.
A further test deals with Nsp3 Ubl1 (SARS-CoV-2, UniProt P0DTD1 819-2763). The test can be described thus: FP.
In test [1] the target is Nsp9.
Test [2] concerns the target B1. The experiment in a line: FP.
The next test addresses MCM9 796-811. The test can be described thus: FP.
The next test concerns the target MVB12A 166-180. The test can be described thus: FP.
Another test addresses RIF1 1780-1795. The experiment in a line: FP.
The target in another test is NEK9 737-751. The experiment in a line: FP.
Another test has as its target Nsp3 ADRP (SARS-CoV-2, UniProt P0DTD1 819-2763). The test can be described thus: FP.

For the molecule FTEEDLHFVLYGVTPS [PRDM14_(197–213)], the equilibrium dissociation constant (Kd) (usually the concentration at which binding is half-saturated) in the test with Nsp3 SUD-M turned out to be 37 µM.
Molecule CPSLSEEILRCLSLHD [NYNRIN_(1031–1046)] yielded a dissociation constant (Kd) in the test with Nsp3 Ubl1 of 150 µM.
For DIGLLPSPGETGVPWR [MCM9 796-811], in the test with Nsp9 [1], the dissociation constant Kd was ~3200 µM.
In the test with Nsp9 [1], MQGLSLDAASQPSKGY [MVB12A 166-180] gave a Kd of 450 µM.
Regarding {FITC}-PGHSPADYLRFQDLVL [FITC-DYRK1B 394-409], the Kd in the test with Nsp16 was determined as 3.2 µM.
For MNIQEQGFPLDLGASY [AXIN1 1-15], the dissociation constant Kd in the test with Nsp9 [1] is 49 µM.
With SSGLSIGTVFQSSSPY [NEK9 737-751], in the test with Nsp9 [1], binding was put at a Kd of 111 µM.
As to MNIQEQGFPLDLGAS [AXIN1_(1–15)], in the test with Nsp9 [2], the Kd worked out at 49 µM.
Consider SDEGALLDQLYLALRN [NCOA2_(1074–1089)], for which the affinity with Nsp3 Ubl1, expressed as Kd, was 26 µM.
Turning to B1, the Kd is ~3200 µM in the test with MCM9 796-811, 450 µM in the test with MVB12A 166-180, 88 µM with RIF1 1780-1795 and 111 µM in the test with NEK9 737-751.
AEGIDIGEMPSYDLVL [NKRF_(8–23)] registered a dissociation constant Kd in the test with Nsp9 [2] of 50 µM.
The molecule GSTYLHPLSELLGIPL [MBOAT1_(16–31)] returned a dissociation constant Kd with Nsp3 ADRP of 104 µM.
DAALALLLLDRLNQLE [N_(216–231) peptide] came in with an equilibrium dissociation constant (Kd) with Nsp3 Ubl1 of 64 µM.
In the test with Nsp9 [1], NPYSEGQFLDEHHSVN [RIF1 1780-1795] gave a Kd of 88 µM.
PAHPDGFALGRAPLA [LMTK3_(22–36)]: in the test with Nsp9 [2], the affinity, expressed as Kd, was 34 µM.
With {FITC}-AVWTQEHDAILEHFAQ [FITC-DNAH2 92-107], in the test with Nsp8, the dissociation constant Kd is ~190 µM.
In the test with Nsp9 [1], YPAHPDGFALGRAPLA [LMTK3 22-36] showed a Kd of 34 µM.
With FQGAWLGCPEPWEPLL [NOTCH4 1605-1620], binding in the test with Nsp9 [1] was put at a Kd of 125 µM.
